{
  "source": "patent US10335470B2",
  "about": "“Immunogenic compositions comprising progastrin and uses thereof” (Board of Regents, The University of Texas System, priority 2006, dated 2019)",
  "molecules": {"B1": {"name": "PG: full-length recombinant human progastrin PG1-80, 80 amino acids (SEQ ID NO:3), generated in E. coli (protein)", "chain": "SWKPRSQQPDAPLGTGANRDLELPWLEQQGPASHHRRQLGPQGPPHLVADPSKKQGPWLEEEEEAYGWMDFGRRSAEDEN", "modifications": "sequence of progastrin peptide expressed by recombinant expression vector"}, "B2": {"name": "rhPG fusion protein (FP): full length human progastrin protein fused with carrier protein thioredoxin (from bacteria), expressed in E. coli, used as immunogen (protein)", "chain": "SWKPRSQQPDAPLGTGANRDLELPWLEQQGPASHHRRQLGPQGPPHLVADPSKKQGPWLEEEEEAYGWMDFGRRSAEDEN", "modifications": "left off: large carriers; small tags and cut ends", "notes": "full length human progastrin protein fused with carrier protein thioredoxin (from bacteria), expressed in E. coli, used as immunogen"}},
  "key": {"[1]": {"target": "T1, specific binding sites for rhPG (Annexin II) (Rattus norvegicus, UniProt Q07936)", "T1 construct": "endogenous in cells; host or cells: AR42J cells; IEC cells", "T1 sequence (Q07936 2-339 limits assumed)": "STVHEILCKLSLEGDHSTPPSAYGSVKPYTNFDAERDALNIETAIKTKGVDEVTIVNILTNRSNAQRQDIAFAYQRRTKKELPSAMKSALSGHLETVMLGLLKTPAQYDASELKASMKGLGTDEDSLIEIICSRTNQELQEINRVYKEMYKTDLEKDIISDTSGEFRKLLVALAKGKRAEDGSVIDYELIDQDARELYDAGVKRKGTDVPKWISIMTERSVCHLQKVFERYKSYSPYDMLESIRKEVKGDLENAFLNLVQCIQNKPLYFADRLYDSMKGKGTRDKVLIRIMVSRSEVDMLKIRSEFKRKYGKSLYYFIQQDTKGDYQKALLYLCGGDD", "test": "Displacement of 125I-rhPG binding to AR42J and IEC cells", "details": "1.0 nM 125I-rhPG", "experimental": "FIGS. 8A-8C show binding of ^125I-rhPG and ^125I-BH-CCK8 to a pancreatic cancer cell line, AR42J and intestinal epithelial cells (IEC). […] The relative binding affinity of the gastrin like peptides for the specific binding sites for rhPG (FIGS. 8A and B) (Annexin II) and CCK8 (FIG. 8C) to CCK2R was calculated. Data in each point represents the mean values of triplicate measurements from a single experiment and is representative of 2 similar experiments. The intra-experimental variation for each data point was <5-10%. The nM concentration of each peptide used is presented in a log-scale on the x-axis; the excess unlabeled peptide used for displacing the binding of the radio labeled ligand is presented in parentheses. The % loss in the relative binding of the radio labeled ligand in the presence of the increasing concentrations of the indicated non-labeled peptide is presented on the y-axis. IEC cells lack CCK2R binding sites and therefore binding with radio-labeled CCK8 was not examined with these cells.\nThe full-length recombinant human PG1-80 (rhPG) was generated in an E. coli expression system and purified and confirmed as described previously (Singh et al, 2003). rhPG was radio labeled with Na ^125I (Amersham, Chicago, Ill.), and the intact ^125I-rhPG purified by HPLC as described previously (Singh et al, 2003). For these experiments, AR42J cells were expanded in vitro in […] and grown to subconfluence in the growth medium containing 10% FCS. […] The binding data was analyzed by a Scatchard plot as described previously (Singh et al, 1995). […]\nIn order to define the RBA of various peptides for the PG binding sites on the cells, cells in suspension were incubated with 1.0 nM ^125I-rhPG in the presence or absence of increasing concentrations (0.1 nM-10.0 μM) of either the homologous or heterologous peptide. Non-specific binding was determined in the presence of 1000× excess of the non-labeled homologous peptide. […] Cell pellets were counted for ^125I in a gamma counter with ˜70% efficiency for ^125I. […]"}, "[2]": {"tested_on": "thioredoxin", "sequence (P0AA25 whole entry)": "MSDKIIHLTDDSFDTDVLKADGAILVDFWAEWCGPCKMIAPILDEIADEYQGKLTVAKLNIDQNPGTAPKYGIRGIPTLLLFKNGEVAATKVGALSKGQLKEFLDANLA", "details": "all mouse groups (WT and PS21)", "description": "Briefly, transgenic mice expressing human progastrin (PS21) and wild type mice were divided into 3 groups and immunized with (a) recombinant thioredoxin, (b) a recombinant fusion protein where human progastrin was fused with thioredoxin and recombinant progastrin, all proteins were expressed in E. coli and purified from cell extract. Each protein was emulsified using CFA/IFA (Sigma) as an adjuvant. The mice that received vaccine emulsified using CFA on day 1 followed by two subsequent immunization using IFA on day 21 and day 42. All injections were administered subcutaneously. Mice were bled and serum prepared to estimate the titers once a week for 3 weeks, 15 days after the final immunization.\nThe antibody tires in serum were determined by solid phase ELISA using limiting dilution method. Briefly, 96 wells PVC ELISA plates (Falcon) were coated with 3 different recombinant protein expressed in E. coli that were used to vaccinate mice i.e. recombinant thioredoxin, Thioredoxin-PG fusion protein and recombinant PG. Recombinant proteins were dissolved in carbonate buffer pH 9.0 and coated at a concentration of 50 μg/50 μl/well. The plates were incubated overnight at 4° C. Following day the plates were flipped and the well were blocked with 100 μl 2% non fat dry milk (NFDM) and plated were incubated at 37° C. for 3-4 hours. […] The ELISA plated were them read in plate reader at 490 nm."}, "[3]": {"tested_on": "progastrin", "test": "Anti-progastrin antibody titers in immunized mice (solid phase ELISA)", "type": "in vivo, mouse", "details": "for anti-PG-antibody titers: PS21 transgenic and WT mice, CFA/IFA, s.c. day 1, 21, 42"}, "[4]": {"tested_on": "aberrant crypt foci in PS21 (Fabp-PG) mice", "test": "Aberrant crypt foci in response to AOM in immunized PS21 Fabp-PG transgenic mice", "type": "in vivo, mouse", "details": "immunized PS21 mice vs wild type mice", "experimental": "Aberrant crypt forci (ACFs) are pre-neoplastic markers of colon carcinogenesis and represent dysplastic growth of colonic crypts, which is the earliest stage of pre-cancerous changes in the colonic mucosa as described in detail previously (Singh et al, 2000b). […] These mice were immunized with either thioredoxin, or the progastrin peptide alone or the fusion protein (FP) which contained thioredoxin and progastrin.\nAll injections were administered subcutaneously. […] The ACFs were then counted."}, "[5]": {"target": "T2, CCK2R (Rattus norvegicus, UniProt P30553)", "T2 construct": "endogenous in cells; host or cells: AR42J cells", "T2 sequence (P30553 1-452)": "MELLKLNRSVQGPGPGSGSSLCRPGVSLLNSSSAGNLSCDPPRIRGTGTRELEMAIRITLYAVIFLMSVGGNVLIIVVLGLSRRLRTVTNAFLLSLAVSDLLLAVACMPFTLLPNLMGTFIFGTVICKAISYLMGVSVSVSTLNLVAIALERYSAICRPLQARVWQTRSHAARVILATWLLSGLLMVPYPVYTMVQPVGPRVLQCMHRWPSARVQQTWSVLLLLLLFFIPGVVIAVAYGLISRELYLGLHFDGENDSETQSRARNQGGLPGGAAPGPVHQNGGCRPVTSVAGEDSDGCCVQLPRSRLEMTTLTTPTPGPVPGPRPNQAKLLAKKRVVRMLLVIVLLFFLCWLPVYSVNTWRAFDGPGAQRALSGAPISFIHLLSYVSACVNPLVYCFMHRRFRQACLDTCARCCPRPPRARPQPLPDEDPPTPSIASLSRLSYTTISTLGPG", "test": "Displacement of 125I-BH-CCK8 binding to AR42J cells", "protocol": "Cells were incubated with the indicated radio labeled ligand in the presence or absence of increasing concentrations of either CCK8, G17 or rhPG. The relative binding affinity of the gastrin like peptides for the specific binding sites for rhPG (FIGS. 8A and B) (Annexin II) and CCK8 (FIG. 8C) to CCK2R was calculated.\nIn a few experiments, ^125I-Bolton Hunter-CCK-8 (Amersham Biosciences, Piscataway, N.J.) was used as the radiolabeled ligand and the RBA of gastrin like peptides for displacing the binding of ^125I-BH-CCK8 to AR42J cells examined by our published methods (Singh et al, 1995)."}, "[6]": {"tested_on": "intestinal epithelial cells (IEC), colon cancer cells and pancreatic cancer cells", "details": "cited from earlier work"}, "[7]": {"tested_on": "mouse colon cancer (CA) cells", "test": "Growth of mouse colon cancer (CA) cells in immunized Balb/c mice", "type": "in vivo", "details": "CA cells inoculated at week 10, sacrificed week 14, control adjuvant alone, listed as hPG-immunogen", "source_text": "(§1) FIGS. 6A-6C show immune response induced by hPG-fusion protein (FP) immunogen in different mouse models. […] The immunized Balb/c mice were inoculated with mouse CA cells at week 10 and sacrificed at week 14 and the tumors in the mice were weighed. Control mice received adjuvant alone. The weight of the tumors is indicated by an arrow against Ab titer of each mouse in mgs. Tumor weights from 3 of 6 animals are presented. […] FIGS. 6B and 6C show effect of vaccination with rhPG-FP immunogen on colon carcinogenesis in FVB/N mice. FVB/N mice were immunized with the hPG-fusion protein (FP) immunogen by 3-4 weekly injections and the PG-Ab titers were measured as described for the Balb/c mice. Once the mice developed significant PG-Ab titers, the mice were treated with azoxymethane (AOM) and the total number and size of tumors measured after 6 months of AOM treatment. The number of tumors (FIG. 6B) and the tumor burden (FIG. 6C) is presented herein. *=p<0.05 vs control values. Control mice were immunized with adjuvant alone.\n(§2) Since autocrine and endocrine PG might be playing an important role in colon carcinogenesis, the possibility of using an rhPG fusion protein as an immunogen for treatment purposes was examined. Briefly, the rhPG fusion protein (FP) was used as an immunogen in Balb/C, FVB/N and FABP-PG mice. […]"}, "[8]": {"tested_on": "colon tumors in FVB/N mice", "test": "AOM-induced colon carcinogenesis in immunized FVB/N mice", "type": "in vivo, mouse", "details": "6 months after AOM, vs adjuvant alone", "source_text": "as §1, §2"}},
  "data": [
    {"molecule": "CCK: cholecystokinin (CCK-8), amidated peptide closely related to gastrin", "values": [
      {"measurement": "displacement of binding of radio-labeled rhPG / binding affinity for PG binding sites", "setting": "[1]", "result": "negligible binding affinity"}
    ]},
    {"molecule": "G17: 17 amino acid C-terminally amidated gastrin peptide", "values": [
      {"measurement": "displacement of binding of radio-labeled rhPG / binding affinity for PG binding sites", "setting": "[1]", "result": "negligible binding affinity"}
    ]},
    {"molecule": "thioredoxin: recombinant bacterial thioredoxin carrier protein expressed in E. coli, used alone as immunogen [reference compound]", "values": [
      {"measurement": "anti-thioredoxin-antibody titers", "setting": "[2]", "result": "significant titers"},
      {"measurement": "anti-PG-antibody titers", "setting": "[3]", "result": "not effective at all"},
      {"measurement": "development of ACF in response to AOM", "setting": "[4]", "result": "significantly enhanced"}
    ]},
    {"molecule": "B1", "values": [
      {"measurement": "anti-PG-antibody titers", "setting": "[3]", "result": "much less effective"},
      {"measurement": "anti-PG-antibody titers", "setting": "[3]; listed as PG peptide", "result": "much lower levels"},
      {"measurement": "development of ACF in response to AOM", "setting": "[4]", "result": "significantly enhanced"},
      {"measurement": "displacement of binding of 125I-BH-CCK8 to CCK2R", "setting": "[5]", "result": "largely ineffective"},
      {"measurement": "growth factor-like effects on cells", "setting": "[6]", "result": "potent growth factor-like effects"},
      {"measurement": "displacement of binding of radio-labeled rhPG / binding affinity for PG binding sites", "setting": "[1]", "result": "dose-dependently displaced"}
    ]},
    {"molecule": "B2", "values": [
      {"measurement": "CA tumor weights reduced compared to control mice", "setting": "[7]", "result": "15-30%"},
      {"measurement": "titers of specific anti-hPG-Abs", "setting": "[3]; Balb/C, FVB/N and FABP-PG mice, within 4-8 weeks of vaccination", "result": "very high titers"},
      {"measurement": "generation of PG antibodies, FP vs PG alone", "setting": "[3]; PS21 mice", "result": 2, "unit": "fold"},
      {"measurement": "anti-PG-antibody titers", "setting": "[3]", "result": "2 fold to much higher titers"},
      {"measurement": "anti-PG-antibody titers", "setting": "[3]; listed as progastrin fusion protein", "result": "strong response"},
      {"measurement": "development of ACF in response to AOM", "setting": "[4]", "result": "complete attenuation"},
      {"measurement": "total number of tumors", "setting": "[8]", "result": "significantly (p<0.05) reduced"},
      {"measurement": "tumor burden/mouse", "setting": "[8]", "result": "significantly (p<0.05) reduced"}
    ]}
  ]
}
